Results: patent US6399065 (SCHERING, dated 2002)

B1: SLAM-Ig (SLAM-immunoglobulin fusion protein: entire extracellular domain of human SLAM fused to the Fc portion of human IgG1 heavy chain) (Fc fusion)
chain: ASYGTGGRMMNCPKILRQLGSKVLLPLTYERINKSMNKSIHIVVTMAKSLENSVENKIVSLDPSEAGPPRYLGDRYKFYLENLTLGIRESRKEDEGWYLMTLEKNVSVQRFCLQLRLYEQVSTPEIKVLNKTQENGTCTLILGCTVEKGDHVAYSWSEKAGTHPLNPANSSHLLSLTLGPQHADNIYICTVSNPISNNSQTFSPWPGCRTDPSETKP
notes: Fluorescein conjugated for flow cytometry; also called recombinant SLAM-Ig; soluble form of SLAM (SLAM-Ig); not shown: Fc portion of the human IgG1 heavy chain
B2: human SLAM (SLAM1, encoded by pSURslam1), cell surface (receptor)
chain: RMMNCPKILRQLGSKVLLPLTYERINKSMNKSIHIVVTMAKSLENSVENKIVSLDPSEAGPPRYLGDRYKFYLENLTLGIRESRKEDEGWYLMTLEKNVSVQRFCLQLRLYEQVSTPEIKVLNKTQENGTCTLILGCTVEKGDHVAYSWSEKAGTHPLNPANSSHLLSLTLGPQHADNIYICTVSNPISNNSQTFSPWPGCRTDPSETKPWAVYAGLLGGVIMILIMVVILQLRRRGKTNHYQTTVEKKSLTIYAQVQKPGPLQKKLDSFPAQDPCTTIYVAATEPVPESVQETNSITVYASVTLPES

Legend:
[1] = biological target: human SLAM (SLAM1, encoded by pSURslam1), cell surface (human) (UniProt Q13291); test: cell-based or functional assay
[2] = biological target: the molecule itself; test: SPR (BIACORE), SLAM-Ig immobilized, SLAM-Ig in solution; apparent Kd from the rate constants
Experimental: The equilibrium constants for SLAM/SLAM interactions were analyzed by surface plasmon resonance using a BIACORE™ (Pharmacia) instrument. An anti-SLAM Ab 7D4 was used.
(§1) Ab 7D4/SLAM-Ig and SLAM-Ig/SLAM-Ig binding kinetics and affinity were measured. About 8000 resonance units (RUs) of SLAM-Ig were covalently attached to the dextran matrix in the sensor chip via its lysines, according to the manufacturers protocol (BIACORE™ manual, Pharmacia Biosensor). Buffer (phosphate-buffer saline, PBS, pH 7.0) was passed through the flow cell until all of the dissociable protein was removed and the baseline remained stable. Solutions containing various concentrations of the antibody 7D4 in PBS (ranging from 10 nM to 500 nM) were then passed through the flow cell. An increase in mass of protein bound was observed, followed by a decrease when the protein solution was replaced with buffer. A non-linear data analysis protocol, O'Shannessy, et al. (1993) *Anal. Biochem.* 212:457–468, was used to analyze the data to determine the association (k_a) and dissociation (k_d) rate constants. The equilibrium dissociation constant K_d was then calculated from the ratio k_d/k_a.
SLAM-Ig/SLAM-Ig binding kinetics were measured in a similar manner. […]

[3] = biological target: the molecule itself; test: SPR (BIACORE), SLAM-Ig immobilized, SLAM-Ig in solution at 100 nM to 1500 nM, 5 µl/min
Experimental: as §1
SLAM-Ig/SLAM-Ig binding kinetics were measured in a similar manner. After immobilization of SLAM-Ig to the chip, solutions of SLAM-Ig at concentrations ranging from 100 nM to 1500 nM were passed through the flow cell at a flow rate of 5 μl/min. From the association and dissociation phases, the corresponding rate constants and thus the equilibrium binding constant were obtained.

[4] = biological target: B2; test: flow cytometry on SLAM/L cells; reference mAb A12
Experimental: The binding of SLAM-Ig to SLAM transfectants is specific for the SLAM portion of the molecule and not the Ig, as the staining was performed in the presence of excess IgG in the 30% human serum added. Furthermore, SLAM transfectants were not stained by other Fc containing molecules such as CD40-Ig. The binding of SLAM-Ig was about 5-fold lower than the binding to SLAM/L cells observed using an equivalent concentration of the mAb A12. […] SLAM-Ig binding to transfected cells was not inhibited by EDTA.
(§2) The A12 anti-SLAM mAb has been described. Phycoerythrin conjugated CD45RO and CD3 mAbs were purchased from Becton-Dickinson. Cells stained with mAbs, SLAM-Ig or CD40-Ig were washed three times with PBS, 2% FCS and analyzed using a FACScan (Becton-Dickinson).

[5] = biological target: B2; test: flow cytometry on different SLAM-expressing cell types; reference mAb A12
Description: as §2
However, SLAM-Ig did bind to EBV-transformed B-cell lines and CD4^+ T-cell clones, both cell types which we have shown to express SLAM. In no cell types tested did SLAM-Ig bind to cells not expressing SLAM. In addition, the levels of SLAM-Ig binding co-modulated with SLAM expression on CD45RO^+ T cells following activation with anti-CD3. The level of SLAM-IG staining relative to A12 staining on different cell-types was consistent with that observed on L-cell transfectants being 5-fold lower and Ca^++ independent.

[6] = biological target: the molecule itself; test: cell-based or functional assay

Molecule: anti-SLAM monoclonal antibody A12 (IgG1)
- IFN-γ production (pg/ml) by antigen-stimulated T-cell clone Th0/ChT38; no antibody 5207, control Ab 7463 [1]: 20600 pg/mL
- IFN-γ production (pg/ml) by antigen-stimulated T-cell clone Th0/MoT81; no antibody 5423, control Ab 6596 [1]: 18200 pg/mL
- IFN-γ production (pg/ml) by antigen-stimulated T-cell clone Th1/HY06; no antibody 5982, control Ab 5904 [1]: 21900 pg/mL
- IFN-γ production (pg/ml) by antigen-stimulated T-cell clone Th1/TA20; no antibody 8374, control Ab 8070 [1]: 15400 pg/mL
- IFN-γ production (pg/ml) by antigen-stimulated T-cell clone Th2/MoT72; no antibody 496, control Ab 170 [1]: 8580 pg/mL
- IFN-γ production (pg/ml) by antigen-stimulated T-cell clone Th2/NP12; no antibody 962, control Ab 902 [1]: 8300 pg/mL
- IFN-γ production (pg/ml) by antigen-stimulated T-cell clone Th2/NP44; no antibody 1073, control Ab 1319 [1]: 7660 pg/mL
- IFN-γ production by Th2 clones, fold upregulation [1]: 5 to 17 fold
- IL-4 production (pg/ml) by antigen-stimulated T-cell clone Th0/ChT38; no antibody 12907, control Ab 10102 [1]: 15000 pg/mL
- IL-4 production (pg/ml) by antigen-stimulated T-cell clone Th0/MoT81; no antibody 8455, control Ab 8451 [1]: 11100 pg/mL
- IL-4 production (pg/ml) by antigen-stimulated T-cell clone Th1/HY06; no antibody 48, control Ab 40 [1]: 90 pg/mL
- IL-4 production (pg/ml) by antigen-stimulated T-cell clone Th1/TA20; no antibody 62, control Ab 69 [1]: 97 pg/mL
- IL-4 production (pg/ml) by antigen-stimulated T-cell clone Th2/MoT72; no antibody 8805, control Ab 8542 [1]: 16500 pg/mL
- IL-4 production (pg/ml) by antigen-stimulated T-cell clone Th2/NP12; no antibody 6636, control Ab 6486 [1]: 11100 pg/mL
- IL-4 production (pg/ml) by antigen-stimulated T-cell clone Th2/NP44; no antibody 11617, control Ab 11738 [1]: 10400 pg/mL
- anti-CD3 induced T-cell proliferation at optimal anti-CD3, fold increase [1]: 2 to 3 fold

Molecule: B1
- Kd [2]: 920 nM
- koff [3]: 0.011 s⁻¹
- kon [3]: 12000 M⁻¹ s⁻¹
- fold lower binding than an equivalent concentration of mAb A12 [4]: ~5 fold
- fold lower staining relative to A12 staining [5]: 5 fold

Molecule: B2
- proliferation of T cell clone B21 activated with SLAM/L cells, fold enhancement by cyclosporin at 2 µg/ml [6]: 2 fold
